Consider 1 sequence from article PMC12175530.

Series [1] deals with T1, EseE-His6 (Edwardsiella piscicida) (UniProt A0AAU8P1U3).
T1 sequence: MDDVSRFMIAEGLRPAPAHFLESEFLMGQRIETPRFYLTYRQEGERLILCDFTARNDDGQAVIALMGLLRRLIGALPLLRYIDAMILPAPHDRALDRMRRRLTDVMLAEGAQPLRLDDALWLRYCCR
The series can be described thus: EMSA. Conditions: 20 mM Tris-HCl pH 7.5, 50 mM MgCl2, 5% glycerol, 20 uL, 2 h at 25 C. (In general: A gel shift assay detects complexes by their altered migration in electrophoresis.)

Series [2] concerns the target T2, EsrB-His6 (Edwardsiella piscicida) (UniProt A0AAU8P338).
T2 sequence: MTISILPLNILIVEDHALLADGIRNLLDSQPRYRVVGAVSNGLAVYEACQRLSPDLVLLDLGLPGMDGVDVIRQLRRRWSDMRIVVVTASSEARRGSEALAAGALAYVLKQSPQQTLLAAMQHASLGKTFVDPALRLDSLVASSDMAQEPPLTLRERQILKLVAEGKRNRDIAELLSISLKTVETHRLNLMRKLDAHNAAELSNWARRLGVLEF
The experiment in a line: EMSA. Conditions: 20 mM Tris-HCl pH 7.5, 50 mM MgCl2, 5% glycerol, 20 uL, 2 h at 25 C.

In the case of “GCCCGAACACCCGAGAAAAACCAACGTAACTTCAGGTAATTACCCGATATCTTTCGCGCGGGTTCAGCACCCAGAATGGGCCGGGGAAAAAGAGTTCGTCTCCCGATAACCAAACAGCAAACGTTATGCAGCTTCTCGAAAGTTCGCCCGCTAACGGCGTTCTAGCATCACCTCATCGGTAGTCAATAGGAGGTTTCACT (double strand) [escC -200 to -1]”, the binding result in series [1] and in series [2] was “binds” throughout.
